Data as given in US20130129739A1 (Bayer, published 2013).

T1: extracellular domain of human PRLR (monomeric, soluble) (human, UniProt P16471 25-234)
T1 construct: also called ECD-PRLR; ECD of PRLR
T1 sequence: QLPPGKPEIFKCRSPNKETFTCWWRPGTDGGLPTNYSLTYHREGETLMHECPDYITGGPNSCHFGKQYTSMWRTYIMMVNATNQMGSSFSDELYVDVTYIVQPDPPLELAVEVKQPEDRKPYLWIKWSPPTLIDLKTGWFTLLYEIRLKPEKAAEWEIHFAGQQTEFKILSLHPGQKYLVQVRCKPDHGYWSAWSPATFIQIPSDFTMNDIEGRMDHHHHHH


Biological target: T1, extracellular domain of human PRLR …
Assay: ELISA: plate coated with human PRLR extracellular domain, Fab-containing E. coli supernatant, anti-flag-HRP, Amplex Red
Protocol: 96 well microtiter plates were coated with 1 μg per milliliter of human PRLR. Plates were incubated over night at 4° C. After blocking with PBS buffer containing 3% bovine serum albumin, normalized E. coli-derived supernatants containing the Fab variants were added. Detection of formed complexes occurred via the addition of an anti-flag antibody (Sigma, A8592) labeled with horseradish peroxidase.

Binder	binding result
005-C04-L2-1-11-0 (Fab, V domains shown, Maturated 005-C04 variant; Fab in E. coli supernatant, flag-detected) VH: EVQLLESGGGLVQPGGSLRLSCAASGFTFSSYWWHWVRQAPGKGLEWVSDMARLSSYTNYADSVKGRFTISRDNSKNTLYLQMNSLRAEDTAVYYCARGLDARRMDYWGQGTLVTVTS VL: QSVLTQPPSASGTPGQRVTISCTGSSSNIGAGYVVHWYQQLPGTAPKLLIYRNNVRQSGVPDRFSGSKSGTSASLAISGLRSEDEADYYCAAWDDSLNGWLFGGGTKLTVLG	binds
005-C04-L2-1-23-7 (Fab, V domains shown, Maturated 005-C04 variant; Fab in E. coli supernatant, flag-detected) VH: EVQLLESGGGLVQPGGSLRLSCAASGFTFSSYWNHWVRQAPGKGLEWVSDISRASPYTGYADSVKGRFTISRDNSKNTLYLQMNSLRAEDTAVYYCARGLDARRMDYWGQGTLVTVTS VL: QSVLTQPPSASGTPGQRVTISCTGSSSNIGAGYVVHWYQQLPGTAPKLLIYRNNWRPSGVPDRFSGSKSGTSASLAISGLRSEDEADYYCAAWDDSLNGWLFGGGTKLTVLG	binds
005-C04-L2-1-36-6 (Fab, V domains shown, Maturated 005-C04 variant; Fab in E. coli supernatant, flag-detected) VH: EVQLLESGGGLVQPGGSLRLSCAASGFTFSSYWNHWVRQAPGKGLEWVSDMASLSSYTNYADSVKGRFTISRDNSKNTLYLQMNSLRAEDTAVYYCARGLDARRMDYWGQGTLVTVTS VL: QSVLTQPPSASGTPGQRVTISCTGSSSNIGAGYVVHWYQQLPGTAPKLLIYRNNWRQSGVPDRFSGSKSGTSASLAISGLRSEDEADYYCAAWDDSLNGWLFGGGTKLTVLG	binds
005-C04-L2-1-40-2 (Fab, V domains shown, Maturated 005-C04 variant; Fab in E. coli supernatant, flag-detected) VH: EVQLLESGGGLVQPGGSLRLSCAASGFTFSSYWNHWVRQAPGKGLEWVSDISRASPYTGYADSVKGRFTISRDNSKNTLYLQMNSLRAEDTAVYYCARGLDARRMDYWGQGTLVTVTS VL: QSVLTQPPSASGTPGQRVTISCTGSSSNIGAGYVVHWYQQLPGTAPKLLIYRNNQRQSGVPDRFSGSKSGTSASLAISGLRSEDEADYYCAAWDDSLNGWLFGGGTKLTVLG	binds
005-C04-L2-1-33-7 (Fab, V domains shown, Maturated 005-C04 variant; Fab in E. coli supernatant, flag-detected) VH: EVQLLESGGGLVQPGGSLRLSCAASGFTFSSYWNHWVRQAPGKGLEWVSDIARLSPYTGYADSVKGRFTISRDNSKNTLYLQMNSLRAEDTAVYYCARGLDARRMDYWGQGTLVTVTS VL: QSVLTQPPSASGTPGQRVTISCTGSSSNIGAGYVVHWYQQLPGTAPKLLIYRNNVRQSGVPDRFSGSKSGTSASLAISGLRSEDEADYYCAAWDDSLNGWLFGGGTKLTVLG	binds
005-C04-L2-1-40-7 (Fab, V domains shown, Maturated 005-C04 variant; Fab in E. coli supernatant, flag-detected) VH: EVQLLESGGGLVQPGGSLRLSCAASGFTFSSYWNHWVRQAPGKGLEWVSDIASASSYTGYADSVKGRFTISRDNSKNTLYLQMNSLRAEDTAVYYCARGLDARRMDYWGQGTLVTVTS VL: QSVLTQPPSASGTPGQRVTISCTGSSSNIGAGYVVHWYQQLPGTAPKLLIYRNNWRQSGVPDRFSGSKSGTSASLAISGLRSEDEADYYCAAWDDSLNGWLFGGGTKLTVLG	binds
005-C04-L2-1-21-7 (Fab, V domains shown, Maturated 005-C04 variant; Fab in E. coli supernatant, flag-detected) VH: EVQLLESGGGLVQPGGSLRLSCAASGFTFSSYWWHWVRQAPGKGLEWVSDMSRLSSYTNYADSVKGRFTISRDNSKNTLYLQMNSLRAEDTAVYYCARGLDARRMDYWGQGTLVTVTS VL: QSVLTQPPSASGTPGQRVTISCTGSSSNIGAGYVVHWYQQLPGTAPKLLIYRNNQRQSGVPDRFSGSKSGTSASLAISGLRSEDEADYYCAAWDDSLNGWLFGGGTKLTVLG	binds
005-C04-L2-1-42-0 (Fab, V domains shown, Maturated 005-C04 variant; Fab in E. coli supernatant, flag-detected) VH: EVQLLESGGGLVQPGGSLRLSCAASGFTFSSYWNHWVRQAPGKGLEWVSDIARASSYTGYADSVKGRFTISRDNSKNTLYLQMNSLRAEDTAVYYCARGLDARRMDYWGQGTLVTVTS VL: QSVLTQPPSASGTPGQRVTISCTGSSSNIGAGYVVHWYQQLPGTAPKLLIYRNNWRQSGVPDRFSGSKSGTSASLAISGLRSEDEADYYCAAWDDSLNGWLFGGGTKLTVLG	binds
005-C04-L2-1-16-4 (Fab, V domains shown, Maturated 005-C04 variant; Fab in E. coli supernatant, flag-detected) VH: EVQLLESGGGLVQPGGSLRLSCAASGFTFSSYWNHWVRQAPGKGLEWVSDMSRLSSYTNYADSVKGRFTISRDNSKNTLYLQMNSLRAEDTAVYYCARGLDARRMDYWGQGTLVTVTS VL: QSVLTQPPSASGTPGQRVTISCTGSSSNIGAGYVVHWYQQLPGTAPKLLIYRNNWRPSGVPDRFSGSKSGTSASLAISGLRSEDEADYYCAAWDDSLNGWLFGGGTKLTVLG	binds
005-C04-L2-1-25-5 (Fab, V domains shown, Maturated 005-C04 variant; Fab in E. coli supernatant, flag-detected) VH: EVQLLESGGGLVQPGGSLRLSCAASGFTFSSYWNHWVRQAPGKGLEWVSDMASLSPYTGYADSVKGRFTISRDNSKNTLYLQMNSLRAEDTAVYYCARGLDARRMDYWGQGTLVTVTS VL: QSVLTQPPSASGTPGQRVTISCTGSSSNIGAGYVVHWYQQLPGTAPKLLIYRNNQRQSGVPDRFSGSKSGTSASLAISGLRSEDEADYYCAAWDDSLNGWLFGGGTKLTVLG	binds
005-C04-L2-1-25-4 (Fab, V domains shown, Maturated 005-C04 variant; Fab in E. coli supernatant, flag-detected) VH: EVQLLESGGGLVQPGGSLRLSCAASGFTFSSYWNHWVRQAPGKGLEWVSDISRLSPYTNYADSVKGRFTISRDNSKNTLYLQMNSLRAEDTAVYYCARGLDARRMDYWGQGTLVTVTS VL: QSVLTQPPSASGTPGQRVTISCTGSSSNIGAGYVVHWYQQLPGTAPKLLIYRNNQRQSGVPDRFSGSKSGTSASLAISGLRSEDEADYYCAAWDDSLNGWLFGGGTKLTVLG	binds
005-C04-L2-1-20-1 (Fab, V domains shown, Maturated 005-C04 variant; Fab in E. coli supernatant, flag-detected) VH: EVQLLESGGGLVQPGGSLRLSCAASGFTFSSYWWHWVRQAPGKGLEWVSDIARASSYTNYADSVKGRFTISRDNSKNTLYLQMNSLRAEDTAVYYCARGLDARRMDYWGQGTLVTVTS VL: QSVLTQPPSASGTPGQRVTISCTGSSSNIGYGYVVHWYQQLPGTAPKLLIYRNNWRPSGVPDRFSGSKSGTSASLAISGLRSEDEADYYCAAWDDSLNGWLFGGGTKLTVLG	binds

More lines, now with the values ahead:

binding result	Binder
binds	005-C04-L2-1-12-4 (Fab, V domains shown, Maturated 005-C04 variant; Fab in E. coli supernatant, flag-detected) VH: EVQLLESGGGLVQPGGSLRLSCAASGFTFSSYWNHWVRQAPGKGLEWVSDIARLSSYTNYADSVKGRFTISRDNSKNTLYLQMNSLRAEDTAVYYCARGLDARRMDYWGQGTLVTVTS VL: QSVLTQPPSASGTPGQRVTISCTGSSSNIGAGYVVHWYQQLPGTAPKLLIYRNNWRPSGVPDRFSGSKSGTSASLAISGLRSEDEADYYCAAWDDSLNGWLFGGGTKLTVLG
binds	005-C04-L2-1-11-3 (Fab, V domains shown, Maturated 005-C04 variant; Fab in E. coli supernatant, flag-detected) VH: EVQLLESGGGLVQPGGSLRLSCAASGFTFSSYWNHWVRQAPGKGLEWVSDMSSLSSYTNYADSVKGRFTISRDNSKNTLYLQMNSLRAEDTAVYYCARGLDARRMDYWGQGTLVTVTS VL: QSVLTQPPSASGTPGQRVTISCTGSSSNIGAGYVVHWYQQLPGTAPKLLIYRNNVRPSGVPDRFSGSKSGTSASLAISGLRSEDEADYYCAAWDDSLNGWLFGGGTKLTVLG
binds	005-C04-L2-1-25-7 (Fab, V domains shown, Maturated 005-C04 variant; Fab in E. coli supernatant, flag-detected) VH: EVQLLESGGGLVQPGGSLRLSCAASGFTFSSYWWHWVRQAPGKGLEWVSDIARASSYTNYADSVKGRFTISRDNSKNTLYLQMNSLRAEDTAVYYCARGLDARRMDYWGQGTLVTVTS VL: QSVLTQPPSASGTPGQRVTISCTGSSSNIGYGYVVHWYQQLPGTAPKLLIYRNNWRPSGVPDRFSGSKSGTSASLAISGLRSEDEADYYCAAWDDSLNGWLFGGGTKLTVLG
binds	005-C04-L2-1-25-0 (Fab, V domains shown, Maturated 005-C04 variant; Fab in E. coli supernatant, flag-detected) VH: EVQLLESGGGLVQPGGSLRLSCAASGFTFSSYWWHWVRQAPGKGLEWVSDIARASSYTNYADSVKGRFTISRDNSKNTLYLQMNSLRAEDTAVYYCARGLDARRMDYWGQGTLVTVTS VL: QSVLTQPPSASGTPGQRVTISCTGSSSNIGAGYVVHWYQQLPGTAPKLLIYRNNWRPSGVPDRFSGSKSGTSASLAISGLRSEDEADYYCAAWDDSLNGWLFGGGTKLTVLG
binds	005-C04-L2-1-28-7 (Fab, V domains shown, Maturated 005-C04 variant; Fab in E. coli supernatant, flag-detected) VH: EVQLLESGGGLVQPGGSLRLSCAASGFTFSSYWNHWVRQAPGKGLEWVSDMSSLSSYTGYADSVKGRFTISRDNSKNTLYLQMNSLRAEDTAVYYCARGLDARRMDYWGQGTLVTVTS VL: QSVLTQPPSASGTPGQRVTISCTGSSSNIGAGYVVHWYQQLPGTAPKLLIYRNNVRQSGVPDRFSGSKSGTSASLAISGLRSEDEADYYCAAWDDSLNGWLFGGGTKLTVLG
binds	005-C04-L2-1-31-7 (Fab, V domains shown, Maturated 005-C04 variant; Fab in E. coli supernatant, flag-detected) VH: EVQLLESGGGLVQPGGSLRLSCAASGFTFSSYWWHWVRQAPGKGLEWVSDIARLSPYTNYADSVKGRFTISRDNSKNTLYLQMNSLRAEDTAVYYCARGLDARRMDYWGQGTLVTVTS VL: QSVLTQPPSASGTPGQRVTISCTGSSSNIGAGYVVHWYQQLPGTAPKLLIYRNNWRQSGVPDRFSGSKSGTSASLAISGLRSEDEADYYCAAWDDSLNGWLFGGGTKLTVLG
binds	005-C04-L2-1-20-0 (Fab, V domains shown, Maturated 005-C04 variant; Fab in E. coli supernatant, flag-detected) VH: EVQLLESGGGLVQPGGSLRLSCAASGFTFSSYWWHWVRQAPGKGLEWVSDMSRLSSYTNYADSVKGRFTISRDNSKNTLYLQMNSLRAEDTAVYYCARGLDARRMDYWGQGTLVTVTS VL: QSVLTQPPSASGTPGQRVTISCTGSSSNIGAGYVVHWYQQLPGTAPKLLIYRNNVRQSGVPDRFSGSKSGTSASLAISGLRSEDEADYYCAAWDDSLNGWLFGGGTKLTVLG
binds	005-C04-L2-1-38-3 (Fab, V domains shown, Maturated 005-C04 variant; Fab in E. coli supernatant, flag-detected) VH: EVQLLESGGGLVQPGGSLRLSCAASGFTFSSYWNHWVRQAPGKGLEWVSDISRLSSYTNYADSVKGRFTISRDNSKNTLYLQMNSLRAEDTAVYYCARGLDARRMDYWGQGTLVTVTS VL: QSVLTQPPSASGTPGQRVTISCTGSSSNIGYGYVVHWYQQLPGTAPKLLIYRNNWRPSGVPDRFSGSKSGTSASLAISGLRSEDEADYYCAAWDDSLNGWLFGGGTKLTVLG
